B1: Fab fragment of the humanized anti-NGF antibody hum-αD11 (Fab, V domains shown)
VH: EVQLVESGGGLVQPGGSLRLSCAASGFSLTNNNVNWVRQAPGKGLEWVGGVWAGGATDYNSALKSRFTISRDNSKNTAYLQMNSLRAEDTAVYYCARDGGYSSSTLYAMDAWGQGTLVTVSS
VL: DIQMTQSPSSLSASVGDRVTITCRASEDIYNALAWYQQKPGKAPKLLIYNTDTLHTGVPSRFSGSGSGTDYTLTISSLQPEDFATYFCQHYFHYPRTFGQGTKVEIK
notes: as the VH of m3 (hum-αD11 VH); constant part of the Fab heavy chain; not described for the Fab provided by PanGenetics; as the Vκ of m3 (hum-αD11 Vκ); positions L46 and L87 mutated to the rat αD11 residue, Kabat numbering; constant part of the Fab light chain; also called Fab hum-αD11; source: kindly provided by PanGenetics UK Ltd
B2: rat anti-NGF monoclonal antibody (mAb) αD11 (antibody, V domains shown)
VH: QVQLKESGPGLVQPSQTLSLTCTVSGFSLTNNNVNWVRQATGRGLEWMGGVWAGGATDYNSALKSRLTITRDTSKSQVFLKMHSLQSEDTATYYCARDGGYSSSTLYAMDAWGQGTTVTVSA
VL: DIQMTQSPASLSASLGETVTIECRASEDIYNALAWYQQKPGKSPQLLIYNTDTLHTGVPSRFSGSGSGTQYSLKINSLQSEDVASYFCQHYFHYPRTFGGGTKLELK
notes: VH of rat αD11; rat heavy chain constant region; the CH1 part is in PDB 1ZAN (Fab); light chain of rat αD11; whole light chain in PDB 1ZAN (Fab αD11); Whole rat IgG; also called parental mAb αD11; rat αD11

Columns and labels:
[1] = target: T1, human Nerve Growth Factor (Homo sapiens, UniProt P01138); experiment: SPR; BIACore; hNGF amine-coupled on CM5 chips (89, 93, 100 RU); Fab hum-αD11 0.39-25 nM injected in HBSEP pH 7.4 with 100 µg/ml BSA, 50 µl/min; triplicate; apparent constants; conditions: both partners purified
T1 construct: human Nerve Growth Factor (beta-NGF), mature growth factor; also called hNGF; human NGF; source: obtained according to Covaceuszach et al. [77]
T1 sequence (P01138 122-241): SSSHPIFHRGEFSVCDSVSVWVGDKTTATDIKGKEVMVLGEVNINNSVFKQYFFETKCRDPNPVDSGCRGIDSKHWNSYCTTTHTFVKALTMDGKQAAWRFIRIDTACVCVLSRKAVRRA

[2] = target: T1, human Nerve Growth Factor; experiment: SPR; BIACore; rat mAb αD11 amine-coupled on CM5 chips (1025, 1040, 1280 RU); hNGF 0.29-37.5 nM injected in PBS with 0.005% Surfactant P20, 30 µl/min; triplicate; apparent constants; conditions: both partners purified

| Binder | Ka [1] [M⁻¹] | Kd [1] [nM] | Ka [2] [M⁻¹] | Kd [2] [nM] |
| --- | --- | --- | --- | --- |
| B1 | 3.4e+10 | 0.0289 ± 0.0041 |  |  |
| B2 |  |  | 2.21e+09 | 0.451 ± 0.045 |
